Target: canine Met (canine) (UniProt Q75ZY9)
Experiment: cell-based or functional assay

phosphorylation of canine Met in OSA cell lines: 50 ng/mL
Substance: recombinant human HGF (from UniProt P14210 32-728) (ligand)
